From US20240317834A1, “COMPOSITIONS AND METHODS FOR NEUROLOGICAL DISEASES” (CODA BIOTHERAPEUTICS, INC., priority 2020, published 2024)

System: Lenti-X 293T cells
Assay: YFP fluorescence quenching anion reporter plate reader assay of engineered receptors stimulated with acetylcholine or a non-native ligand
Format: cell-based
Conditions: for percent quench of YFP fluorescence, 1 mM ach: acetylcholine 1 mM; for percent quench of YFP fluorescence, 3 mM ach: acetylcholine 3 mM
Method in brief: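 Lenti-X 293T cells carrying a YFP anion reporter were transiently transfected with channel DNA and assayed the next day in HEPES-buffered ECS at pH 7.2. Ligand (acetylcholine or non-native ligand) was added in NaI-substituted ECS. Percent quench was the mean of the last 10 s relative to the 15 s pre-addition baseline.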

B1: CODA1173: engineered chimeric LGIC receptor, S172D, Y210W in SEQ ID NO: 33 (protein)
chain: MRCSPGGVWLALAASLLHVSLQGEFQRKLYKELVKNYNPLERPVANDSQPLTVYFSLSLLQIMDVDEKNQVLTTNIWLQMSWTDHYLQWNVSEYPGVKTVRFPDGQIWKPDILLYNSADERFDATFHTNVLVNSSGHCQYLPPGIFKSSCPMDLKNFPMDVQTCKLKFGSWDYGGWSLDLQMQEADISGYIPNGEWDLVGIPGKRSERFWECCKEPYPDVTFTVTMRRRMGYYLIQMYIPSLLIVILSWISFWINMDAAPARVGLGITTVLTMTTQSSGSRASLPKVSYVKAIDIWMAVCLLFVFSALLEYAAVNFVSRQHKELLRFRRKRRHHKSPMLNLFQEDEAGEGRFNFSAYGMGPACLQAKDGISVKGANNSNTTNPPPAPSKSPEEMRKLFIQRAKKIDKISRIGFPMAFLIFNMFYWIIYKIVRREDVHNQ
modifications: synthetic sequence of chimeric LGIC
Q: With B1 as the molecule, how does the “YFP fluorescence quenching using CNL001” value (1 nM CNL001, first column) read?
A: 16.321%

Q: And the “YFP fluorescence quenching using CNL001” value (1 nM CNL001, second column)?
A: 30.264%

Q: And the “YFP fluorescence quenching using Varenicline” value (3 nM var, first column)?
A: 9.211

Q: And the “YFP fluorescence quenching using Varenicline” value (3 nM var, second column)?
A: 7.193

Q: And the “YFP fluorescence quenching using CNL001” value (10 nM CNL001, first column)?
A: 61.978%

Q: And the “YFP fluorescence quenching using CNL001” value (10 nM CNL001, second column)?
A: 65.343%

Q: And the “YFP fluorescence quenching using Varenicline” value (30 nM var, first column)?
A: 7.821

Q: What about the “YFP fluorescence quenching using Varenicline” value (30 nM var, second column) of the same molecule?
A: 9.078

Q: And the “YFP fluorescence quenching using CNL001” value (50 nM CNL001, first column)?
A: 73.006%

Q: And the “YFP fluorescence quenching using CNL001” value (50 nM CNL001, second column)?
A: 74.903%

Q: What about the “YFP fluorescence quenching using ABT-126” value (50 nM abt) of the same molecule?
A: 5.15%

Q: What about the “YFP fluorescence quenching using CNL001” value (100 nM CNL001, first column) of the same molecule?
A: 76%

Q: And the “YFP fluorescence quenching using CNL001” value (100 nM CNL001, second column)?
A: 76.759%

Q: And the “YFP fluorescence quenching using CNL002” value (100 nM CNL002)?
A: 70.15%

Q: What about the “YFP fluorescence quenching using ABT-126” value (100 nM abt) of the same molecule?
A: 25.08%

Q: And the “YFP fluorescence quenching using ABT-126” value (300 nM abt)?
A: 66.86%

Q: What about the “YFP fluorescence quenching using Varenicline” value (300 nM var, first column) of the same molecule?
A: 6.933

Q: What about the “YFP fluorescence quenching using Varenicline” value (300 nM var, second column) of the same molecule?
A: 8.36

Q: And the “YFP fluorescence quenching using Varenicline” value (500 nM var, first column)?
A: 5.501

Q: What about the “YFP fluorescence quenching using Varenicline” value (500 nM var, second column) of the same molecule?
A: 7.04

Q: What about the “YFP fluorescence quenching using CNL001” value (1 uM CNL001, first column) of the same molecule?
A: 76.928%

Q: And the “YFP fluorescence quenching using CNL001” value (1 uM CNL001, second column)?
A: 76.619%

Q: And the “YFP fluorescence quenching using CNL002” value (1 uM CNL002)?
A: 77.33%

Q: And the “YFP fluorescence quenching using ABT-126” value (1 uM abt)?
A: 66.94%

Q: And the “YFP fluorescence quenching using Varenicline” value (1 uM var, first column)?
A: 7.174

Q: What about the “YFP fluorescence quenching using Varenicline” value (1 uM var, second column) of the same molecule?
A: 5.185

Q: What about the “YFP fluorescence quenching using ABT-126” value (10 uM abt) of the same molecule?
A: 78.67%

Q: What about the “percent quench of YFP fluorescence, 1 mM ach” value of the same molecule?
A: −6.12%

Q: And the “percent quench of YFP fluorescence, 3 mM ach” value?
A: 11.31%

B2: CODA75: non-responding chimeric engineered receptor used as the negative control (protein)
chain: MRCSPGGVWLALAASLLHVSLQGEFQRKLYKELVKNYNPLERPVANDSQPLTVYFSLSLLQIMDVDEKNQVLTTNIWLQMSWTDHYLQWNVSEYPGVKTVRFPDGQIWKPDILLYNSADERFDATFHTNVLVNSSGHCQYLPPGIFKSSCYIDVRWFPFDVQHCKLKFGSWSYGGWSLDLQMQEADISGYIPNGEWDLVGIPGKRSERFYECCKEPYPDVTFTVTMRRRTGYYLIQMYIPSLLIVILSWISFWINMDAAPARVGLGITTVLTMTTQSSGSEIMPATSDSVPLIAQAIDIWMAVCLLFVFSALLEYAAVNFVSRQHKELLRFRRKRRHHKSPMLNLFQEDEAGEGRFNFSAYGMGPACLQAKDGISVKGANNSNTTNPPPAPSKSPEEMRKLFIQRAKKIDKISRIGFPMAFLIFNMFYWIIYKIVRREDVHNQ
modifications: synthetic sequence of chimeric LGIC
notes: non-responding chimeric engineered receptor used as the negative control
Q: For B2, which “YFP fluorescence quenching using CNL001” value (1 nM CNL001, first column) is on record?
A: −8.496%

Q: What about the “YFP fluorescence quenching using CNL001” value (1 nM CNL001, second column) of the same molecule?
A: −2.266%

Q: What about the “YFP fluorescence quenching using TC-5619/Bradanicline” value (1 nM brd) of the same molecule?
A: −13.39%

Q: And the “YFP fluorescence quenching using TC-5619/Bradanicline” value (3 nM brd)?
A: −15.78%

Q: What about the “YFP fluorescence quenching using Varenicline” value (3 nM var, first column) of the same molecule?
A: 4.161

Q: And the “YFP fluorescence quenching using Varenicline” value (3 nM var, second column)?
A: −6.216

Q: And the “YFP fluorescence quenching using CNL001” value (10 nM CNL001, first column)?
A: 1.816%

Q: And the “YFP fluorescence quenching using CNL001” value (10 nM CNL001, second column)?
A: −4.649%

Q: And the “YFP fluorescence quenching using TC-5619/Bradanicline” value (10 nM brd)?
A: −13.47%

Q: What about the “YFP fluorescence quenching using TC-5619/Bradanicline” value (30 nM brd) of the same molecule?
A: −16.41%

Q: What about the “YFP fluorescence quenching using Facinicline” value (30 nM fac) of the same molecule?
A: −11.68

Q: What about the “YFP fluorescence quenching using Varenicline” value (30 nM var, first column) of the same molecule?
A: −5.173

Q: What about the “YFP fluorescence quenching using Varenicline” value (30 nM var, second column) of the same molecule?
A: −6.593

Q: What about the “YFP fluorescence quenching using CNL001” value (50 nM CNL001, first column) of the same molecule?
A: −5.922%

Q: What about the “YFP fluorescence quenching using CNL001” value (50 nM CNL001, second column) of the same molecule?
A: −5.597%

Q: And the “YFP fluorescence quenching using ABT-126” value (50 nM abt)?
A: −17.07%

Q: What about the “YFP fluorescence quenching using CNL001” value (100 nM CNL001, first column) of the same molecule?
A: −8.159%

Q: What about the “YFP fluorescence quenching using CNL001” value (100 nM CNL001, second column) of the same molecule?
A: −5.058%

Q: And the “YFP fluorescence quenching using CNL002” value (100 nM CNL002)?
A: −7.94%

Q: What about the “YFP fluorescence quenching using ABT-126” value (100 nM abt) of the same molecule?
A: −16.76%

Q: What about the “YFP fluorescence quenching using AZD-0328” value (100 nM azd0328) of the same molecule?
A: −8.83%

Q: And the “YFP fluorescence quenching using Facinicline” value (100 nM fac)?
A: 4.35

Q: And the “YFP fluorescence quenching using ABT-126” value (300 nM abt)?
A: −16.76%

Q: And the “YFP fluorescence quenching using AZD-0328” value (300 nM azd0328)?
A: −11.15%

Q: What about the “YFP fluorescence quenching using TC-5619/Bradanicline” value (300 nM brd) of the same molecule?
A: −17.56%

Q: And the “YFP fluorescence quenching using Facinicline” value (300 nM fac)?
A: −10.55

Q: And the “YFP fluorescence quenching using Varenicline” value (300 nM var, first column)?
A: −5.733

Q: What about the “YFP fluorescence quenching using Varenicline” value (300 nM var, second column) of the same molecule?
A: −7.312

Q: And the “YFP fluorescence quenching using ABT-126” value (500 nM abt)?
A: −14.68%

Q: What about the “YFP fluorescence quenching using Varenicline” value (500 nM var, first column) of the same molecule?
A: −10.35

Q: What about the “YFP fluorescence quenching using Varenicline” value (500 nM var, second column) of the same molecule?
A: −7.586

Q: And the “YFP fluorescence quenching using CNL001” value (1 uM CNL001, first column)?
A: −4.272%

Q: What about the “YFP fluorescence quenching using CNL001” value (1 uM CNL001, second column) of the same molecule?
A: −1.281%

Q: And the “YFP fluorescence quenching using CNL002” value (1 uM CNL002)?
A: −9.81%

Q: What about the “YFP fluorescence quenching using ABT-126” value (1 uM abt) of the same molecule?
A: −16%

Q: What about the “YFP fluorescence quenching using TC-6987” value (1 uM tc6987) of the same molecule?
A: −11.79

Q: And the “YFP fluorescence quenching using Varenicline” value (1 uM var, first column)?
A: −5.637

Q: And the “YFP fluorescence quenching using Varenicline” value (1 uM var, second column)?
A: −3.757

Q: And the “YFP fluorescence quenching using ABT-126” value (3 uM abt)?
A: −14.11%

Q: And the “YFP fluorescence quenching using ABT-126” value (10 uM abt)?
A: −13.98%

Q: And the “YFP fluorescence quenching using TC-6987” value (10 uM tc6987)?
A: −14.31

Q: What about the “YFP fluorescence quenching using CNL002” value (30 uM CNL002) of the same molecule?
A: −15.27%

Q: What about the “YFP fluorescence quenching using ABT-126” value (30 uM abt) of the same molecule?
A: −21.05%

Q: And the “YFP fluorescence quenching using AZD-0328” value (30 uM azd0328)?
A: −11.92%

Q: What about the “YFP fluorescence quenching using Facinicline” value (30 uM fac) of the same molecule?
A: −5.25

Q: And the “YFP fluorescence quenching using ABT-126” value (50 uM abt)?
A: −21.35%

Q: What about the “YFP fluorescence quenching using ABT-126” value (100 uM abt) of the same molecule?
A: −24.12%

Q: And the “YFP fluorescence quenching using TC-6987” value (500 uM tc6987)?
A: −19.65

Q: What about the “percent quench of YFP fluorescence, 10 uM ach” value (acetylcholine 10 uM) of the same molecule?
A: −12.88%

Q: What about the “percent quench of YFP fluorescence, 30 uM ach” value (acetylcholine 30 uM) of the same molecule?
A: −18.67%

Q: And the “percent quench of YFP fluorescence, 50 uM ach” value (acetylcholine 50 uM)?
A: −0.29%

Q: And the “percent quench of YFP fluorescence, 100 uM ach” value (acetylcholine 100 uM)?
A: −14.46%

Q: And the “percent quench of YFP fluorescence, 300 uM ach” value (acetylcholine 300 uM)?
A: −16.31%

Q: And the “percent quench of YFP fluorescence, 500 uM ach” value (acetylcholine 500 uM)?
A: −17.41%

Q: And the “percent quench of YFP fluorescence, 1 mM ach” value?
A: −16.46%

Q: What about the “percent quench of YFP fluorescence, 3 mM ach” value of the same molecule?
A: −12.38%

Q: What about the “percent quench of YFP fluorescence, 5 mM ach” value (acetylcholine 5 mM) of the same molecule?
A: −20.88%

Q: And the “percent quench of YFP fluorescence, 10 mM ach” value (acetylcholine 10 mM)?
A: −8.69%
